Each block holds one binder with its values, some of them ahead of it.
Assays:
[1] = target: PP2A-B55α heterotrimer (not stated | human (endogenous in HEK293)) (UniProt P63151)
[2] = target: PP2A-B55 heterotrimer (B55 isoform not named for the experiment) (not stated | human (endogenous in HEK293)) (UniProt P63151)
[3] = target: PP2A-B55 heterotrimer (B55 isoform not named for the experiment) (not stated | human (endogenous in HEK293)) (UniProt P63151); test: inhibition of phosphatase activity, IC50 converted to Kd; PP2A-B55 at 0.125 nM, radioactive CDKS substrate at 5 μM, varying thiophosphorylated Endos; Kd calculated from the IC50 according to the equation of Sasaki et al. (1994) and Takai et al. (1995)
[4] = target: PP2A-B55 heterotrimer (B55 isoform not named for the experiment) (not stated | human (endogenous in HEK293)) (UniProt P63151); remark: listed apart in the source
[5] = target: PP2A-B55 heterotrimer (B55 isoform not named for the experiment) (not stated | human (endogenous in HEK293)) (UniProt P63151); test: rate constants calculated from constants of phosphatase activity assays; kon and koff determined from the experimentally measured Kd (for thiophosphorylated Endos) and kcat; used for the theoretical time-course of Figure 10A

UniProt P63151, sequence (P63151 whole entry, chain 1 of 3, canonical isoform): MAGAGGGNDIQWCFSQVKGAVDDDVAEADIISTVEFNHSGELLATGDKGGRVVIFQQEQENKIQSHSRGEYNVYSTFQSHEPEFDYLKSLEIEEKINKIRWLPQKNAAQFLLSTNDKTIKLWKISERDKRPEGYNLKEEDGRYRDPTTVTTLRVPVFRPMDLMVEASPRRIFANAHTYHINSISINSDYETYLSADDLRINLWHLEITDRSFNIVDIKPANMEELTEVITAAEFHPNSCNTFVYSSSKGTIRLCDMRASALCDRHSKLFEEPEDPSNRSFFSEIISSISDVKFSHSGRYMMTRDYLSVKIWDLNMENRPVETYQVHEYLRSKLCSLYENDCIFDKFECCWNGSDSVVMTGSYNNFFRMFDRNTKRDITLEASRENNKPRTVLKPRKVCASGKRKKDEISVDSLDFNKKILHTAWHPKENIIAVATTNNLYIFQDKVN
UniProt P63151, sequence (P30153 whole entry, chain 2 of 3, further chain, canonical isoform): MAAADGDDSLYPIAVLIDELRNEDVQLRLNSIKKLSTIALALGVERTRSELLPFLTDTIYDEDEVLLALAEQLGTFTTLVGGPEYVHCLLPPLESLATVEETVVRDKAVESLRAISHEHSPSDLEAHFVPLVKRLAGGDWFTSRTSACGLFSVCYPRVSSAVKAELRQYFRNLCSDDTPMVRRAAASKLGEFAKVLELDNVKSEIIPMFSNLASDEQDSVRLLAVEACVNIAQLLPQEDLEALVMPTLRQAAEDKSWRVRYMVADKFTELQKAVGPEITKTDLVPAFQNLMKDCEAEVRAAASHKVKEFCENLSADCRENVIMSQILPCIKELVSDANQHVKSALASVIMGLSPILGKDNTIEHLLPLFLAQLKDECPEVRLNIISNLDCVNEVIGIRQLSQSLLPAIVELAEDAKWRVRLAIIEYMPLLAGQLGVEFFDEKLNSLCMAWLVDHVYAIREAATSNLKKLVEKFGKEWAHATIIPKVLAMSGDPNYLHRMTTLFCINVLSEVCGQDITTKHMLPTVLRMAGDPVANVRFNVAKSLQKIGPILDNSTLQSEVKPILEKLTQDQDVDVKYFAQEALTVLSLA
UniProt P63151, sequence (P67775 whole entry, chain 3 of 3, further chain, canonical isoform): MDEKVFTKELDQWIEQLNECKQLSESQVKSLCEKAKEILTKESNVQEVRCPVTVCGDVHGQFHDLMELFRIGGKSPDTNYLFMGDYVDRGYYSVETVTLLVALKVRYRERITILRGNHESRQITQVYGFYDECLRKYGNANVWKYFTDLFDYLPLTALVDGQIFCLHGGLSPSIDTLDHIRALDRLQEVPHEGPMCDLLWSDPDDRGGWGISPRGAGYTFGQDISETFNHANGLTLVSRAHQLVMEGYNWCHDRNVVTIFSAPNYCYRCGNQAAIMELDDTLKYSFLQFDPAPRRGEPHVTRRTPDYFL

B1: phosphomimetic Drosophila Endos (S68D) (natural protein)
chain: MSSAEENSNSPATTPQDTETTEQANLTDLEKIEEEKLKSKYPSGMRVPGGHSAFLQKRLQKGQKFFDDGDYQMAKQKGGGVKQVFANKVTTGEAIPTPETVPARKTSIIQPCNKFPATS
IC50 of inhibition of the anti-CDKS activity of purified PP2A-B55α (Figure 6D) [1]: 500 nM

B3: unphosphorylated Xenopus Endosulfine (natural protein)
chain: MSDKYIGDSHLEETGEEKQDSQEKEAVTPEKAEEQKLKAKYPNLGQKPGGSDFLMKRLQKGQKYFDSGDYNMAKAKIKNKQLPCAGPDKNLVTGDHIPTPQDLPQRKSSLVTSKLAGHVEDLHHV
IC50 of inhibition of PP2A-B55's anti-CDKS activity (dephosphorylation of radioactive pCDKS) [2]: 566 nM

More lines, now with the values ahead:

IC50 of inhibition of PP2A-B55's anti-CDKS activity (dephosphorylation of radioactive pCDKS) [2]: 197 pM | Kd [3]: 0.12 nM
B2: Xenopus Endosulfine thiophosphorylated by Gwl kinase (natural protein)
chain: MSDKYIGDSHLEETGEEKQDSQEKEAVTPEKAEEQKLKAKYPNLGQKPGGSDFLMKRLQKGQKYFDSGDYNMAKAKIKNKQLPCAGPDKNLVTGDHIPTPQDLPQRKSSLVTSKLAGHVEDLHHV
modifications: thiophosphorylated by Gwl in the presence of 1 mM ATP-[γ]-35S instead of ATP

Km of pEndos for PP2A-B55, best fit to the time course of pCDKS dephosphorylation with 16 nM unlabeled pEndos (Figure 8B) [4]: 0.47 nM | koff [5]: 0.0068 s⁻¹
B4: Gwl-phosphorylated Xenopus Endosulfine (pEndos) (natural protein)
chain: MSDKYIGDSHLEETGEEKQDSQEKEAVTPEKAEEQKLKAKYPNLGQKPGGSDFLMKRLQKGQKYFDSGDYNMAKAKIKNKQLPCAGPDKNLVTGDHIPTPQDLPQRKSSLVTSKLAGHVEDLHHV
modifications: phosphorylated in vitro by Gwl kinase at the Gwl site (32P-labelled or non-radioactive); between 0.5 and 1.0 phosphate per mole of protein

From PMC3949306
